Assay [1] concerns the target T1, Cynomolgus LILRB2 on CHOK1 cells (cynomolgus).
T1 construct: whole, on cells; also called CHOK1-Cyno LILRB2
Nature of the assay: flow cytometry on CHOK1-cyno LILRB2 cells.
Text: Anti-LILRB1 and anti-LILRB2 antibodies were also screened for their ability to bind rhesus macaque LILRB1 (Kactusbio, LLC: LIL-CM1B1 and LIL-CM1B3), cynomolgus LILRB1 (Kactusbio, LLC: LIL-CM1B2) and cynomolgus LILRB2 (Kactusbio, LLC: LIL-CM1B5) by ELISA and flow cytometry.

In assay [2] the target is T2, Biotinylated LILRB2 (UniProt Q8N423 22-460, limits assumed, biotinylated (sites not given)).
T2 construct: also called biotinylated-LILRB2 protein
Nature of the assay: epitope binning ELISA; coated antibody 1 ug/ml, biotinylated LILRB2; competitor J19.h1 at 20 ug/ml.

Assay [3] deals with T2, Biotinylated LILRB2. Put plainly: epitope binning ELISA; coated antibody 1 ug/ml, biotinylated LILRB2; competitor LK-RB2-2 at 20 ug/ml. Background: ELISA stands for enzyme-linked immunosorbent assay.
Experimental: (§1) Binding epitope of a subset of anti-LILRB1 and anti-LILRB2 antibodies was analyzed by epitope binning ELISA. Briefly, a panel of testing antibodies were coated onto ELISA plate. 50 ul/well Biotinylated LILRB1 or LILRB2 and 50 ul/well of competing antibodies were added to the coated plate and incubated at 37° C. for 1 hour. After Streptavidin-HRP (1:5000) incubation and TMB development, the plates were read at 450 nm using Molecular device spectra max plus384.
Assay [4] has as its target T2, Biotinylated LILRB2. Nature of the assay: epitope binning ELISA; coated antibody 1 ug/ml, biotinylated LILRB2; competitor LK-RB2-3 at 20 ug/ml.
Experimental: as §1
The target of assay [5] is T2, Biotinylated LILRB2. Put plainly: epitope binning ELISA; coated antibody 1 ug/ml, biotinylated LILRB2; competitor LK-RB2-14 at 20 ug/ml.
Experimental: as §1
Assay [6] addresses T2, Biotinylated LILRB2. Nature of the assay: epitope binning ELISA; coated antibody 1 ug/ml, biotinylated LILRB2; competitor LK-RB2-15 at 20 ug/ml.
Experimental: as §1
Assay [7] deals with T2, Biotinylated LILRB2. Put plainly: epitope binning ELISA; coated antibody 1 ug/ml, biotinylated LILRB2; competitor LK-RB2-24 at 20 ug/ml.
Experimental: as §1
Assay [8] has as its target T2, Biotinylated LILRB2. Put plainly: epitope binning ELISA; coated antibody 1 ug/ml, biotinylated LILRB2; competitor hz73D1.v1 at 20 ug/ml.
Experimental: as §1
Assay [9] deals with T3, Rhesus LILRB1 (F7H3G7) on CHOK1 cells (rhesus macaque).
T3 construct: whole, on cells; also called CHOK1-Rhesus LILRB1 (F7H3G7)
Put plainly: flow cytometry on CHOK1-rhesus LILRB1 (F7H3G7) cells.

The target of the next assay is T4, human LILRA1 (human, UniProt O75019 17-461, limits assumed).
T4 construct: bought protein coated for ELISA; also called hLILRA1
T4 sequence (O75019 17-461 limits assumed): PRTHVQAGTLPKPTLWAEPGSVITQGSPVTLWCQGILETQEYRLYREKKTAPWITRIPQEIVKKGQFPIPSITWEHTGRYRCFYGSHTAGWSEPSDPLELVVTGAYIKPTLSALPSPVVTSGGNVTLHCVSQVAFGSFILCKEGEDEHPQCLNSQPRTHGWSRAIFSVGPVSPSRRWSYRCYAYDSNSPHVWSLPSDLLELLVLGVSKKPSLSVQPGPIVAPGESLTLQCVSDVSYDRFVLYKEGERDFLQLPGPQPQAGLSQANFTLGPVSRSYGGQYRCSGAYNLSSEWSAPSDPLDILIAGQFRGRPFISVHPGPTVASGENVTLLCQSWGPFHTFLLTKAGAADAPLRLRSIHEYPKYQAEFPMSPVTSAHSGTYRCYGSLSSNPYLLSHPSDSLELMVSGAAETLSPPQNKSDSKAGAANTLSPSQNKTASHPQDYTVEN
Nature of the assay: ELISA, OD450, antibody at 200 nM; + = 2-fold over ISO.

For the next assay, the target named is T5, human LILRB2-his (human, UniProt Q8N423 22-460, limits assumed).
T5 construct: Analyte of the Biacore run; not shown: His tag
T5 sequence (Q8N423 22-460 limits assumed): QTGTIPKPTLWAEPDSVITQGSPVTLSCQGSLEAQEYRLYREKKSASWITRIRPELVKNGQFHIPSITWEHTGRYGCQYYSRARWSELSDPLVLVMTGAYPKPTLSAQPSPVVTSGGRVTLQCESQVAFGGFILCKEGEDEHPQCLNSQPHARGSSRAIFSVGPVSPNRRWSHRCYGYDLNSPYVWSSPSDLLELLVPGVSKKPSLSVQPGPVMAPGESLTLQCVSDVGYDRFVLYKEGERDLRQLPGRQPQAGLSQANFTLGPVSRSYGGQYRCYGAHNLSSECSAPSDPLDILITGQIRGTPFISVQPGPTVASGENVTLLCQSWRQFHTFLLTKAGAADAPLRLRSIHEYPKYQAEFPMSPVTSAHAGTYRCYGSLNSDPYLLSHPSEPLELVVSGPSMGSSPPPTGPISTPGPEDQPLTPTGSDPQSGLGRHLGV
Put plainly: SPR (Biacore 8K), antibody captured via Fc, LILRB2-his as analyte, 1:1 model.

Another assay has as its target T6, human LILRB1-his (human, UniProt Q8NHL6 24-458, limits assumed).
T6 construct: Analyte of the Biacore run; not shown: His tag
Put plainly: SPR (Biacore 8K), antibody captured via Fc, LILRB1-his as analyte, 1:1 model. A general note: Surface plasmon resonance follows binding to a sensor surface in real time, without labels.

The target of another assay is T7, human LILRA3 (human, UniProt Q8N6C8 24-439).
T7 construct: bought protein coated for ELISA; also called hLILRA3
T7 sequence (Q8N6C8 24-439 limits assumed): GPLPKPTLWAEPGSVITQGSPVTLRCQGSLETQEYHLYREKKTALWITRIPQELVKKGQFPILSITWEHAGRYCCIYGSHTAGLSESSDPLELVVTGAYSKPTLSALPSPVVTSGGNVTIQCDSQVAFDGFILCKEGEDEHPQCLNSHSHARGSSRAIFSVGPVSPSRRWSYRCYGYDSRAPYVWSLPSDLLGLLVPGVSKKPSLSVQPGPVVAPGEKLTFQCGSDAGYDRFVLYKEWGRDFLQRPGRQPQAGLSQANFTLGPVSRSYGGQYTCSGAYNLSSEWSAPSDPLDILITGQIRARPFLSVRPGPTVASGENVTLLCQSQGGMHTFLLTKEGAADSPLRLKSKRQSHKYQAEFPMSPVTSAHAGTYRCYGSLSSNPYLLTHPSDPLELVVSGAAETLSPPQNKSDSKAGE
Put plainly: ELISA, OD450, antibody at 200 nM; + = 2-fold over ISO.

Changes are numbered by the printed parent chain.

T2 sequence (Q8N423 22-460 limits assumed): as the sequence (Q8N423 22-460 limits assumed) above
T6 sequence (Q8NHL6 24-458 limits assumed): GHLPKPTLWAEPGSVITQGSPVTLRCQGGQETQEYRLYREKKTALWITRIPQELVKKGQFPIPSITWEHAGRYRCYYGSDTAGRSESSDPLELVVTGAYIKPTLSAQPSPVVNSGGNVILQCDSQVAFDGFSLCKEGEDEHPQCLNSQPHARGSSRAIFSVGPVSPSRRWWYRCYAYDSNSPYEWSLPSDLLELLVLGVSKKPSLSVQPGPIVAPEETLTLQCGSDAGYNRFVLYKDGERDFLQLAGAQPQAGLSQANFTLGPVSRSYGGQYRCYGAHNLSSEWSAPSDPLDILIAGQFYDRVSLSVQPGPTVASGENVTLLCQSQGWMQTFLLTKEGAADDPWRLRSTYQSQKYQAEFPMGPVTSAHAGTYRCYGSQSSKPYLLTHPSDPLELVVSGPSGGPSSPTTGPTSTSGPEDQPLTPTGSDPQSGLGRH
Experimental for human LILRA1: (§2) To further confirm binding affinity, selected clones were assayed in ELISA or FACS in a range of testing concentrations.
Experimental for human LILRA3: as §2
Experimental for human LILRB2-his: For affinity ranking, antibodies were captured on the sensor chip through Fc capture method. LILRB1-his, LILRB2-his or LILRA2-his was used as the analyte. The surface was regenerated before the injection of another antibody. The process was repeated until all antibodies were analyzed. The off-rates were obtained from fitting the experimental data locally to 1:1 interaction model using the Biacore 8K evaluation software. The data of dissociation (kd) and association (ka) rate constants were obtained using Biacore 8K evaluation software. The equilibrium dissociation constants (KD) were calculated from the ratio of kd over ka. The antibodies were ranked by their dissociation rate constant kd.

B1: LK-RB1-39 (antibody, human IgG4 S228P, kappa, V domains shown)
VH: EVQLQQSGAELVRPGASVKLSCTASGFNIKDDYVHWVNQRPEQGLEWIGWIDPENGDTGYASKFQDKATITADTSSNTAYLHLSSLTSEDTAVYYCTTTRWTGSYWGQGTTLTVSS
VL: QIVLTQSPAIMSASPGEKVTITCSASSSVNYMHWFQQKPGSSPKLWIYSTANLASGVPARFSGSGSGTSYSLTISRMEAEDAATYYCQQRSSYPPTWTFGGGTKLEIKR
notes: Anti-LILRB1 antibody
In turn, B1 yielded an EC50 in [1] of 0.36 nM. This counts as sub-nanomolar.

B2: J19.h1 (antibody, human IgG4 S228P, kappa, V domains shown)
VH: QITLKESGPTLVKPTQTLTLTCTFSGFSLNTYAMGVSWIRQPPGKALEWLASIWWNGNKYNNPSLKSRLTVTKDTSKNQVVLTMTNMDPVDTATYYCAHSRIIRFTDYVMDAWGQGTLVTVSS
VL: DIQMTQSPSSLSTSVGDRVTITCRASEDIYNDLAWYQQKPGKAPKLLIYNANSLHTGVASRFSGSGSGTDFTFTISSLQPEDVATYFCQQYYDYPLTFGQGTKLEIKR
As to B2, the Inhibition % with Biotinylated LILRB2 [2] was found to be 92.5%; with Biotinylated LILRB2 [3] it was 97.8%; with Biotinylated LILRB2 [4], 93.9%; in the assay with Biotinylated LILRB2 [5] it was 96.1%; in the assay with Biotinylated LILRB2 [6], 17.5%; in the assay with Biotinylated LILRB2 [7], 44.5%. The Inhibition % with Biotinylated LILRB2 [8] came to 95.9%.

B3: LK-RB2-8 (antibody, human IgG4 S228P, kappa, V domains shown)
VH: QIQLVQSGPELKKPGETVKISCKASGYSFASYGMGWVKQAPGKGLKWLGWINTHSGVPTYADDFKGRFAFSLETSASTAYLQINNLKNEDTATYFCAHYGRPWFPYWGQGTLVTVSA
VL: DIQMTQSPASLSASVGETVTITCRTSENIYSYLAWYQQKQGKSPQLLVYNAKSLAEGVPSRFSGSGSGTQFSLRINSLQPEDFGTYYCQQHYETPLTFGAGTKLELKR
notes: Anti-LILRB2 antibody
In the case of B3, the response in assay [1] was half-maximal at 19.8 nM (EC50).

B4: LK-RB2-16 (antibody, human IgG4 S228P, kappa, V domains shown)
VH: B3 VH with S28T, A30T, S31T, G42E, L48M, H54N, V57A, A61G, P105A
VL: B3 VL with T25A, Q37H, K42E, S53T, R74K, T85S, Q90H, E93N, T94I
notes: Anti-LILRB2 antibody
Consider B4, for which, in assay [1], a half-maximal response (EC50) required 5.45 nM. This EC50 is about 3.6-fold lower than that of the molecule before.

B5: 15G8 (antibody, human IgG4 S228P, kappa, V domains shown)
VH: DVQLQGSGPGLVKPSETLSLTCSVTGYSITSGYYWNWIRQFPGKKLEWMGYISYDGSNNYNPSLKNRITISRDTSKNQFSLKLNSVTAADTATYYCAHGYSYYYAMDAWGQGTSVTVSS
VL: DIQMTQSPSSLSASVGDRVTITCRTSQDISNYLNWYQQKPGKAVKLLISYTSRLHSGVPSRFSGSGSGTDYTLTISSLQPEDFATYYCQQGNTLPTFGQGTKLEIKR
B5: the EC50 was 2.15 nM in assay [1] and 760 nM in assay [9].

B6: LK-RB1-48 (antibody, human IgG4 S228P, kappa, V domains shown)
VH: EVKLVESGGGLVQPGGSLKLSCAASGFTFSDYYMYWVRQTPEKRLEWVAYISNGGGISFYPDTVKGRFTISRDNAKNTLYLQMSRLKSEDTAIYYCASATKEVGAMDYWGQGTSVTVSS
VL: DIVMTQSQKFLSTTVGDRVSITCKASQNVGTAVAWYQQKPGQSPKILIYSASNRYTGVPDRFTGSGSGTDFTLTISNMQSEDLADYFCQQYSSYRTFGGGTKLEIKR
notes: anti-LILRB1 clone from mouse hybridoma
In the case of B6, the binding result with human LILRA1 is “binds”.

B7: LK-RB1-55 (antibody, human IgG4 S228P, kappa, V domains shown)
VH: B6 VH with G56D, S58T, K76R, N77S, K101T, Y108H
VL: B6 VL with L11M, Q42K, I46L, S50A, K102N
notes: as for B6
For the molecule B7, the binding result with human LILRA1 is “binds”.

B8: LK-RB2-2 (antibody, human IgG4 S228P, kappa, V domains shown)
VH: DVKLEESGEGLVKPGGSLKLSCAASGFTFSSYAMSWVRQTPEKRLEWVAYISSGGDYFHYADTVKGRFTISRDNARNTLYLQMSSLKSEDTAMYYCTREGAHYDSSYLAWFAHWGQGTLVTVSA
VL: DIQMTQSPASLSVSVGETVTITCRASENIYSNLAWYQQRQGKSPQLLVYAATNLADGVPSRFSGSGSGTQYSLKINSLQSEDFGSYYCQQFWDNPLTFGAGTKLELKR
notes: Anti-LILRB2 antibody from mouse hybridoma; parental antibody of LK-RB2-2.h1 to h3
The molecule B8 gave a dissociation constant (Kd) in the assay with human LILRB2-his of 0.168 nM. Also, the off-rate constant (koff) with human LILRB2-his amounted to 0.000134 s⁻¹. In the assay with human LILRB2-his, this molecule returned a kon of 800000 M⁻¹ s⁻¹. The Inhibition % with Biotinylated LILRB2 [2] is 69.6%; with Biotinylated LILRB2 [3], 97.8%; in the assay with Biotinylated LILRB2 [4], 93.9%; with Biotinylated LILRB2 [5], 89.4%; in the assay with Biotinylated LILRB2 [6], 13.6%; in the assay with Biotinylated LILRB2 [7] it was 17.7%. For the same molecule, the Inhibition % with Biotinylated LILRB2 [8] worked out at 92.8%.

B9: hz73D1.v1 (antibody, human IgG4 S228P, kappa, V domains shown)
VH: QVQLVQSGAEVKKPGASVKVSCKASGYTFTDYYINWVRQAPGQGLEWMGNVNPNDGGTTYNQKFKGRVTMTTDTSTSTAYMELRSLRSDDTAVYYCARREIYFYGTIYYYAMDYWGQGTLVTVSS
VL: DIQLTQSPSFLSASVGDRVTITCRASESVDYYGNSFMYWYQQKPGKAPKLLIYFASNLESGVPSRFSGSGSGTEFTLTISSLQPEDFATYYCQQNNEDPWTFGGGTKVEIKR
In the case of B9, the Inhibition % with Biotinylated LILRB2 [2] amounted to 74.8%; with Biotinylated LILRB2 [3], 97.8%; in the assay with Biotinylated LILRB2 [4] it was 65.3%; with Biotinylated LILRB2 [5], 91.8%; with Biotinylated LILRB2 [6] it was 6.43%; with Biotinylated LILRB2 [7] it was 22.4%. In the assay with Biotinylated LILRB2 [8], the Inhibition % worked out at 96.8%.

B10: LK-RB2-24 (antibody, human IgG4 S228P, kappa, V domains shown)
VH: QIQLVQSGPEVKKPGETVKISCKASGYTFTTYGMSWVKQAPGKGLKWMGWLNIYSGVPAYADDFKGRFAFSLESSASTAYLQINNLKNEDTATYFCARRENYDGYGMDYWGQGTSVTVSS
VL: DIVMTQSPATLSVTPGDRVSLSCRASQSISDYLHWYQQKSHESPRLLIKYASQSISGIPSRFSGSGSGSDFTLSINSVEPEDVGVYYCQNGHSFPYTFGGGTKLEIKR
notes: Anti-LILRB2 antibody from mouse hybridoma; parental antibody of LK-RB2-24.h1 to h3
B10: the figures for the Kd with human LILRB1-his and with human LILRB2-his were 21.1 nM and 0.51 nM, respectively. Further, the koff in the assay with human LILRB1-his was 0.00406 s⁻¹; with human LILRB2-his it was 0.000484 s⁻¹. The kon with human LILRB1-his is 192000 M⁻¹ s⁻¹; with human LILRB2-his it was 950000 M⁻¹ s⁻¹. The Inhibition % with Biotinylated LILRB2 [2] was -4.04%; with Biotinylated LILRB2 [3], 48.4%; in the assay with Biotinylated LILRB2 [4], 25.9%; with Biotinylated LILRB2 [5], 91.1%; with Biotinylated LILRB2 [6], 95.2%; with Biotinylated LILRB2 [7], 95.7%. Also, the Inhibition % with Biotinylated LILRB2 [8] stood at 22.1%.

B11: LK-RB1-5 (antibody, human IgG4 S228P, kappa, V domains shown)
VH: QVQLQQPGAELVKPGASVKLSCKASGYTFTDFWIHWVKQRPGQGLEWIGMIHPNSGSTNFNEKFRAKATLTVDKSSSTAYMRLSSLTSEDSAVYYCARSGDGYSNPMDYWGQGTSVTVSS
VL: QIVLSQSPAILSASPGEKVTLTCRASSSVSYMHWYQQKPGSSPKPWIYATSNLASGVPVRFSGSGSGTSYSLTISRMQTEDAATYYCQQWRRSPYTFGGGTKLEIKR
notes: Anti-LILRB1 antibody
For B11, the EC50 turned out to be 1.16 nM in assay [1] and 1.51 nM in assay [9].

B12: LK-RB1-3 (antibody, human IgG4 S228P, kappa, V domains shown)
VH: QVQLQQPGAELVKPGTSVNLSCKASGYTFTSYWIHWVKQRPGRGLEWIGRINPYSSGTRYNEKFKNKATLTVDKPSSTAYMQLTSLTSEDSAVYYCARFDGAPDYFDFWGQGTTLTVSS
VL: DIVMTQSQKFMPTSVGDRVNVTCKASQNVGINVAWYQQKLGQSPKALIYSASYRYSGVPDRFTGSGSGTDFTLTINSVQSEDLADYFCQQYNNYPFTFGSGTKLEIKR
notes: anti-LILRB1 antibody
B12: the binding result with human LILRA3 is reported as “binds”.

B13: LK-RB2-47 (antibody, human IgG4 S228P, kappa, V domains shown)
VH: QVQLKQSGPGLVQPSQSLSITCTVSGFSLISYGVHWVRQSPGKGLEWLGVIWSGGSTDYNAAFISRLSISKDNSKSQVFFKMNSLQADDTAIYYCARSFHYHGSTFDYWGQGTTLTVSS
VL: DIQMTQTTSSLSASLGDRVIISCRASQDINNYLNWYQQKPDGTVKLLIYFTSRLHSGVPSSFSGSGSGTDYSLTINNLEQEDIATYFCQQVNTLPYTFGGGTKLEIKR
notes: Anti-LILRB2 antibody
Take B13: in assay [1], the EC50 came to 0.4 nM.

The EC50 is the concentration needed to bring the measured effect to its halfway point. As a reminder, the Kd is the constant that tells how readily two partners part at equilibrium. A higher Kd goes with weaker binding. In general, koff refers to the rate constant with which the complex falls apart. Read a high koff as a short-lived complex. In general, kon refers to the second-order rate constant of association. Low values mean slower complex formation, high ones faster complex formation.

Values taken from US20260234247A1 (published 2026).
